The term Kd denotes the free concentration of one partner at which half of the binding sites on the other are occupied at equilibrium, for simple one-to-one binding.

This note sets out measurements from publication PMC7000732, “Bridging non-overlapping reads illuminates high-order epistasis between distal protein sites in a GPCR” (Nature Communications, 2020).

The nature of experiment [1]: Whole-cell saturation radioligand binding. Conditions: for Kd: 3H-NECA, whole yeast cells, pH 5.8, mean ± SD of three biological replicates, read-out: equilibrium dissociation constant (Kd); for CPM: raw replicate counts, empty vector not subtracted; for fold greater 3H-NECA binding affinity than wild-type receptor: ratio of Kd to wild-type. The arrangement: species or system Saccharomyces cerevisiae.

Experiment [2] in a line: FACS-based screen of A2aR library with deep sequencing (BRIDGE): variant enrichment. It counts as cell-based, Saccharomyces cerevisiae.
Experiment [3] is described as follows: Fluorescent ligand binding measured by flow cytometry. Conditions: for fluorescent ligand binding signal / % pop above background / Mean Singlet Fluorescence Intensity (530 nm): replicates; for % pop above background / Mean Singlet Fluorescence Intensity (530 nm): incubated with FITC-APEC. The arrangement: species or system Saccharomyces cerevisiae.
Setting [4] is: naive to PS4 library (PS4/naive), high-stringency gating, 10 µM FITC-APEC.

“And” between values parts separate entries of the source, which are not always exact repeats. Equal entries are not always repeated. Where two headings read alike, the source gives them in different places.

On to “WT: wild-type human adenosine A2a receptor, decahistidine-tagged, expressed in yeast from centromeric pYC vector [reference compound]”, for which the Kd in experiment [1] is 39.2 ± 4.8 nM. For the same molecule, the CPM was 64 CPM and 47 CPM and 35 CPM in experiment [1] ([3H-NECA] 1.6 nM); 108 CPM and 89 CPM and 54 CPM in experiment [1] ([3H-NECA] 3.1 nM); 192 CPM and 223 CPM and 155 CPM in experiment [1] ([3H-NECA] 6.3 nM); 331 CPM and 408 CPM and 255 CPM in experiment [1] ([3H-NECA] 12.5 nM); 470 CPM and 533 CPM and 388 CPM in experiment [1] ([3H-NECA] 25 nM); 546 CPM and 694 CPM and 708 CPM in experiment [1] ([3H-NECA] 50 nM). The CPM is 805 CPM and 900 CPM and 958 CPM in experiment [1] ([3H-NECA] 100 nM); 1026 CPM and 1370 CPM and 1371 CPM in experiment [1] ([3H-NECA] 200 nM); 1047 CPM and 2304 CPM and 1995 CPM in experiment [1] ([3H-NECA] 400 nM). For the same molecule, the figures for the Enrichment rate in experiment [2] (setting [4]) and in experiment [2] (naive to PS4 population) were 0.3 and 0.30 fold, respectively. In addition, the “fluorescent ligand binding signal” value in experiment [3] ([FITC-APEC] 10 nM, Supplementary Figure 1 source data, listed as pYC A2a10H) is 101 and 100 and 99; in experiment [3] ([FITC-APEC] 10 nM, Supplementary Figure 4 source data, listed as pYC A2a10H) it was 104 and 103 and 102; in experiment [3] ([FITC-APEC] 100 nM, Supplementary Figure 1 source data, listed as pYC A2a10H), 111 and 108 and 134; in experiment [3] ([FITC-APEC] 100 nM, Supplementary Figure 4 source data, listed as pYC A2a10H), 114 and 110 and 133; in experiment [3] ([FITC-APEC] 1000 nM, Supplementary Figure 1 source data, listed as pYC A2a10H), 208 and 180 and 189; in experiment [3] ([FITC-APEC] 1000 nM, Supplementary Figure 4 source data, listed as pYC A2a10H), 206 and 184 and 191. The “fluorescent ligand binding signal” value in experiment [3] ([FITC-APEC] 10000 nM, Supplementary Figure 1 source data, listed as pYC A2a10H) is 370 and 353 and 396; in experiment [3] ([FITC-APEC] 10000 nM, Supplementary Figure 4 source data, listed as pYC A2a10H), 377 and 330 and 373; in experiment [3] ([FITC-APEC] 50000 nM, Supplementary Figure 1 source data, listed as pYC A2a10H), 442 and 457 and 477; in experiment [3] ([FITC-APEC] 50000 nM, Supplementary Figure 4 source data, listed as pYC A2a10H), 354 and 386 and 364.

Regarding “pITy A2a10H: decahistidine-tagged wild-type A2aR expressed in yeast from multi-site-integrating pITy vector”, the “% pop above background” value in experiment [3] (+raffinose) is 97.3% and 99.1% and 99.7%; in experiment [3] (-raffinose) it was 88.4% and 92.7% and 86.6%. In addition, the “Mean Singlet Fluorescence Intensity (530 nm)” value in experiment [3] (+raffinose) was 1177 a.u. and 1389 a.u. and 1621 a.u; in experiment [3] (-raffinose), 853 a.u. and 1341 a.u. and 1013 a.u. Further, the “fluorescent ligand binding signal” value was 102 and 103 and 101 in experiment [3] ([FITC-APEC] 10 nM, Supplementary Figure 1 source data); 124 and 112 and 118 in experiment [3] ([FITC-APEC] 100 nM, Supplementary Figure 1 source data); 357 and 323 and 352 in experiment [3] ([FITC-APEC] 1000 nM, Supplementary Figure 1 source data); 1097 and 999 and 1047 in experiment [3] ([FITC-APEC] 10000 nM, Supplementary Figure 1 source data); 1681 and 1267 and 1322 in experiment [3] ([FITC-APEC] 50000 nM, Supplementary Figure 1 source data).

B1: TGRIA: Variant GRIA (T88/Q89G/W246R/L249I/H250A) of human adenosine A2a receptor (protein, UniProt P29274 1-412, looked up, variant Q89G W246R L249I H250A)
Adenosine receptor A2a: MPIMGSSVYITVELAIAVLAILGNVLVCWAVWLNSNLQNVTNYFVVSLAAADIAVGVLAIPFAITISTGFCAACHGCLFIACFVLVLTGSSIFSLLAIAIDRYIAIRIPLRYNGLVTGTRAKGIIAICWVLSFAIGLTPMLGWNNCGQPKEGKNHSQGCGEGQVACLFEDVVPMNYMVYFNFFACVLVPLLLMLGVYLRIFLAARRQLKQMESQPLPGERARSTLQKEVHAAKSLAIIVGLFALCRLPIAIINCFTFFCPDCSHAPLWLMYLAIVLSHTNSVVNPFIYAYRIREFRQTFRKIIRSHVLRQQEPFKAAGTSARVLAAHGSDGEQVSLRLNGHPPGVWANGSAPHPERRPNGYALGLVSGGSAQESQGNTGLPDVELLSHELKGVCPEPPGLDDPLAQDGAGVS
On to B1, for which the Kd in experiment [1] came out at 10.9 ± 0.8 nM. Also, the CPM in experiment [1] ([3H-NECA] 1.6 nM) was 148 CPM and 222 CPM and 182 CPM; in experiment [1] ([3H-NECA] 3.1 nM) it was 317 CPM and 337 CPM and 348 CPM; in experiment [1] ([3H-NECA] 6.3 nM), 477 CPM and 597 CPM and 529 CPM; in experiment [1] ([3H-NECA] 12.5 nM), 612 CPM and 847 CPM and 800 CPM; in experiment [1] ([3H-NECA] 25 nM), 815 CPM and 1157 CPM and 1066 CPM; in experiment [1] ([3H-NECA] 50 nM), 1152 CPM and 1391 CPM and 1352 CPM. The CPM is 1488 CPM and 1655 CPM and 1630 CPM in experiment [1] ([3H-NECA] 100 nM); 1857 CPM and 2089 CPM and 2112 CPM in experiment [1] ([3H-NECA] 200 nM); 2326 CPM and 2813 CPM and 3169 CPM in experiment [1] ([3H-NECA] 400 nM). In addition, the “fold greater 3H-NECA binding affinity than wild-type receptor” value in experiment [1] was “fourfold”. For the same molecule, the Enrichment rate in experiment [2] (setting [4]) stood at 517. The “Fold increase in enrichment rate over WT” value in experiment [2] (naive to PS4 library, WT rate 0.30) came to 1722 fold.

B2: SLNIG: A2aR variant; letters are residues at T88, Q89, W246, L249, H250 (protein, UniProt P29274 1-412, looked up, variant T88S Q89L W246N L249I H250G)
Adenosine receptor A2a: MPIMGSSVYITVELAIAVLAILGNVLVCWAVWLNSNLQNVTNYFVVSLAAADIAVGVLAIPFAITISTGFCAACHGCLFIACFVLVLSLSSIFSLLAIAIDRYIAIRIPLRYNGLVTGTRAKGIIAICWVLSFAIGLTPMLGWNNCGQPKEGKNHSQGCGEGQVACLFEDVVPMNYMVYFNFFACVLVPLLLMLGVYLRIFLAARRQLKQMESQPLPGERARSTLQKEVHAAKSLAIIVGLFALCNLPIGIINCFTFFCPDCSHAPLWLMYLAIVLSHTNSVVNPFIYAYRIREFRQTFRKIIRSHVLRQQEPFKAAGTSARVLAAHGSDGEQVSLRLNGHPPGVWANGSAPHPERRPNGYALGLVSGGSAQESQGNTGLPDVELLSHELKGVCPEPPGLDDPLAQDGAGVS
B2: the Kd in experiment [1] was 10.7 ± 0.6 nM. For the same molecule, the CPM was 138 CPM and 195 CPM and 220 CPM in experiment [1] ([3H-NECA] 1.6 nM); 282 CPM and 376 CPM and 382 CPM in experiment [1] ([3H-NECA] 3.1 nM); 494 CPM and 563 CPM and 618 CPM in experiment [1] ([3H-NECA] 6.3 nM); 783 CPM and 767 CPM and 883 CPM in experiment [1] ([3H-NECA] 12.5 nM); 861 CPM and 1199 CPM and 1152 CPM in experiment [1] ([3H-NECA] 25 nM); 1216 CPM and 1410 CPM and 1521 CPM in experiment [1] ([3H-NECA] 50 nM). Moreover, the CPM is 1341 CPM and 1416 CPM and 1794 CPM in experiment [1] ([3H-NECA] 100 nM); 1692 CPM and 1849 CPM and 2050 CPM in experiment [1] ([3H-NECA] 200 nM); 2037 CPM and 2595 CPM and 2482 CPM in experiment [1] ([3H-NECA] 400 nM). In experiment [2], the Enrichment rate is reported as 791. Also, in experiment [2], the “Fold increase in enrichment rate over WT” value came out at 2635 fold.

B3: C28A/C82A/C128A/C185A/C245S/C254A/C394S: inactive A2aR variant that does not bind ligand (protein, UniProt P29274 1-412, looked up, variant C28A C82A C128A C185A C245S C254A C394S)
Adenosine receptor A2a: MPIMGSSVYITVELAIAVLAILGNVLVAWAVWLNSNLQNVTNYFVVSLAAADIAVGVLAIPFAITISTGFCAACHGCLFIAAFVLVLTQSSIFSLLAIAIDRYIAIRIPLRYNGLVTGTRAKGIIAIAWVLSFAIGLTPMLGWNNCGQPKEGKNHSQGCGEGQVACLFEDVVPMNYMVYFNFFAAVLVPLLLMLGVYLRIFLAARRQLKQMESQPLPGERARSTLQKEVHAAKSLAIIVGLFALSWLPLHIINAFTFFCPDCSHAPLWLMYLAIVLSHTNSVVNPFIYAYRIREFRQTFRKIIRSHVLRQQEPFKAAGTSARVLAAHGSDGEQVSLRLNGHPPGVWANGSAPHPERRPNGYALGLVSGGSAQESQGNTGLPDVELLSHELKGVSPEPPGLDDPLAQDGAGVS
Take B3: in experiment [3] (FITC-APEC, yeast cells), the “fluorescent ligand binding, result in words” value is “does not bind ligand”.

B4: TSWLH: single-residue mutant Q89S of A2aR, the most abundant variant in PS4 (protein, UniProt P29274 1-412, looked up, variant Q89S)
Adenosine receptor A2a: MPIMGSSVYITVELAIAVLAILGNVLVCWAVWLNSNLQNVTNYFVVSLAAADIAVGVLAIPFAITISTGFCAACHGCLFIACFVLVLTSSSIFSLLAIAIDRYIAIRIPLRYNGLVTGTRAKGIIAICWVLSFAIGLTPMLGWNNCGQPKEGKNHSQGCGEGQVACLFEDVVPMNYMVYFNFFACVLVPLLLMLGVYLRIFLAARRQLKQMESQPLPGERARSTLQKEVHAAKSLAIIVGLFALCWLPLHIINCFTFFCPDCSHAPLWLMYLAIVLSHTNSVVNPFIYAYRIREFRQTFRKIIRSHVLRQQEPFKAAGTSARVLAAHGSDGEQVSLRLNGHPPGVWANGSAPHPERRPNGYALGLVSGGSAQESQGNTGLPDVELLSHELKGVCPEPPGLDDPLAQDGAGVS
Take B4: in experiment [1], the Kd turned out to be 11.8 ± 1 nM. Also, the CPM in experiment [1] ([3H-NECA] 1.6 nM) is 269 CPM and 283 CPM and 176 CPM; in experiment [1] ([3H-NECA] 3.1 nM), 574 CPM and 478 CPM and 918 CPM; in experiment [1] ([3H-NECA] 6.3 nM) it was 877 CPM and 818 CPM and 594 CPM; in experiment [1] ([3H-NECA] 12.5 nM), 1293 CPM and 1161 CPM and 783 CPM; in experiment [1] ([3H-NECA] 25 nM) it was 1556 CPM and 1523 CPM and 1194 CPM; in experiment [1] ([3H-NECA] 50 nM), 2099 CPM and 1735 CPM and 1402 CPM. Besides, the CPM is 2533 CPM and 2165 CPM and 1719 CPM in experiment [1] ([3H-NECA] 100 nM); 2889 CPM and 2229 CPM and 2151 CPM in experiment [1] ([3H-NECA] 200 nM); 3382 CPM and 2947 CPM and 2944 CPM in experiment [1] ([3H-NECA] 400 nM). The “fold greater 3H-NECA binding affinity than wild-type receptor” value in experiment [1] is recorded as “fourfold”. Also, the “Fold increase in enrichment rate over WT” value in experiment [2] is recorded as 1121 fold.
